Test results as given in US20230035659A1, “Compositions and Methods for TTR Gene Editing and Treating ATTR Amyloidosis Comprising a Corticosteroid or Use Thereof” (Intellia Therapeutics, Inc., priority 2019, published 2023).
Strand notation (5' to 3'): a small letter for the sugar, then the base; units joined by * are phosphorothioate-linked, units joined directly phosphodiester-linked; [ ] holds rarer units or linkages, { } end groups; capitals alone tell only the bases. m = 2'-O-methyl; r = 2'-OH (RNA)

B1: G000568: TTR sgRNA modified sequence, Human, SEQ ID NO: 110; guide sequence of CR003391 (nucleic acid)
guide: mG*mG*mC*rUrGrUrCrGrUrCrArCrCrArArUrCrCrCrArGrUrUrUrUrArGrAmGmCmUmAmGmAmAmAmUmAmGmCrArArGrUrUrArArArArUrArArGrGrCrUrArGrUrCrCrGrUrUrArUrCrAmAmCmUmUmGmAmAmAmAmAmGmUmGmGmCmAmCmCmGmAmGmUmCmGmGmUmGmCmU*mU*mU*mU
B2: G000572: TTR sgRNA modified sequence, Human, SEQ ID NO: 113; guide sequence of CR003385 (nucleic acid)
guide: mC*mC*mC*rCrUrArCrUrCrCrUrArUrUrCrCrArCrCrArGrUrUrUrUrArGrAmGmCmUmAmGmAmAmAmUmAmGmCrArArGrUrUrArArArArUrArArGrGrCrUrArGrUrCrCrGrUrUrArUrCrAmAmCmUmUmGmAmAmAmAmAmGmUmGmGmCmAmCmCmGmAmGmUmCmGmGmUmGmCmU*mU*mU*mU
B3: G000500: TTR sgRNA modified sequence, Human, SEQ ID NO: 107; guide sequence of CR003337 (nucleic acid)
guide: mC*mC*mA*rGrUrCrCrArGrCrArArGrGrCrArGrArGrGrGrUrUrUrUrArGrAmGmCmUmAmGmAmAmAmUmAmGmCrArArGrUrUrArArArArUrArArGrGrCrUrArGrUrCrCrGrUrUrArUrCrAmAmCmUmUmGmAmAmAmAmAmGmUmGmGmCmAmCmCmGmAmGmUmCmGmGmUmGmCmU*mU*mU*mU
B4: G000493: TTR sgRNA modified sequence, Human, SEQ ID NO: 100; guide sequence of CR003368 (nucleic acid)
guide: mA*mA*mG*rUrGrCrCrUrUrCrCrArGrUrArArGrArUrUrGrUrUrUrUrArGrAmGmCmUmAmGmAmAmAmUmAmGmCrArArGrUrUrArArArArUrArArGrGrCrUrArGrUrCrCrGrUrUrArUrCrAmAmCmUmUmGmAmAmAmAmAmGmUmGmGmCmAmCmCmGmAmGmUmCmGmGmUmGmCmU*mU*mU*mU
B5: G000481: TTR sgRNA modified sequence, Human, SEQ ID NO: 88; guide sequence of CR003345 (nucleic acid)
guide: UCUAGAACUUUGACCAUCAGGUUUUAGAGCUAGAAAUAGCAAGUUAAAAUAAGGCUAGUCCGUUAUCAACUUGAAAAAGUGGCACCGAGUCGGUGCUUUU
modifications: sugars from the 5' end m3 r25 m12 r28 m32, backbone not given here; further chemistry not fully specified

Assays:
TTR [1] = assay: TTR editing dose response (EC50, maximum editing) in primary human hepatocytes treated with LNP formulated U-depleted Spy Cas9 mRNA and sgRNAs; type: cell-based; conditions: LNP formulated U-depleted Spy Cas9 mRNA and human specific sgRNAs, dose response
Procedure, shortened: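 Primary human hepatocytes, plated 24 h earlier, got LNPs carrying Cas9 mRNA and sgRNA, preincubated 5 min in medium with 6% cyno serum. Dosing was an 8-point 3-fold series from 300 ng mRNA. At 72 h, NGS read indel/substitution frequency at the target, giving EC50 and maximum percent editing.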

TTR [2] = assay: TTR editing dose response (EC50, maximum editing) in primary cyno hepatocytes treated with LNP formulated U-depleted Spy Cas9 mRNA and sgRNAs; type: cell-based, cynomolgus monkey; conditions: LNP formulated U-depleted Spy Cas9 mRNA and human specific sgRNAs
Procedure, shortened: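 Primary cyno hepatocytes, 24 h after plating, treated with LNPs (Cas9 mRNA plus sgRNA) preincubated 5 min in medium with 6% cyno serum; 8-point 3-fold doses from 300 ng mRNA. Lysed at 72 h; indel/substitution percentage by amplicon NGS, giving EC50 and maximum editing.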

[3] = test system: potential off-target genomic sites; assay: Off-target analysis by oligo insertion based assay in primary human hepatocytes (sgRNAs); type: cell-based; conditions: 100 ng Cas9 mRNA, 25 nM sgRNA, 12.5 nM donor oligo, 48 h

| Molecule | Max Editing (TTR [1]) [%] | Max Editing (TTR [2]) [%] | # Sites in PHH (off-target integration sites detected) [3] |
| --- | --- | --- | --- |
| B1 | 95.72 | 87.93 | 11 |
| B2 | 97.94 | 100.31 | 2 |
| B3 | 88.70 | 58.04 | 12 |
| B4 | 63.95 | 61.15 | 1 |
| B5 | 87.05 | 95.07 | 0 |
